Reference: patent US20120190039A1 (MOUNT SINAI HOSPITAL, published 2012)

Assays:
[1] = biological target: B-RAF_L487R (human B-RAF kinase domain, residues 448-723) (human) (UniProt P15056); test: analytical ultracentrifugation, equilibrium sedimentation, self-association
[2] = biological target: B-RAF_L487R/E558K (human B-RAF kinase domain, residues 448-723) (human) (UniProt P15056); test: as above
[3] = biological target: B-RAF_R481H (human B-RAF kinase domain, residues 448-723) (human) (UniProt P15056); test: as above
[4] = biological target: MEK (overexpressed in S2 cells) (UniProt Q24324 1-396); test: co-immunoprecipitation from S2 cells
MEK (overexpressed in S2 cells), sequence (Q24324 whole entry): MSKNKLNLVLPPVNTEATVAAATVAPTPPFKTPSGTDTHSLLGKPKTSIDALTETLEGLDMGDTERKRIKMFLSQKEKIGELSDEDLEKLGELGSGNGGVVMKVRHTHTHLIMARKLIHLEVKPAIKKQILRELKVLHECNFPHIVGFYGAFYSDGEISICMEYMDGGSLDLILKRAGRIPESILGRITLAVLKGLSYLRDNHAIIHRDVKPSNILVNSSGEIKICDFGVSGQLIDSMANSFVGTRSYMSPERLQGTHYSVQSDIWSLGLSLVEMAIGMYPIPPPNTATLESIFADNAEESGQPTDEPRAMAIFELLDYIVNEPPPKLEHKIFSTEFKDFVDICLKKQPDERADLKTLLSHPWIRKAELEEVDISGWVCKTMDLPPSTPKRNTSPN
Description: S2 cells were maintained in serum-free insect cell medium (Sigma) at 27° C. Cells were seeded at a density of 1.75×10⁶ cells/ml 24 h prior to transfection. Between 10 to 300 ng (or up to 900 ng for KSR_R732H) of DNA was transfected per construct using Effectene (Qiagen). dsRNAs were produced and used in RNAi experiments as described (Roy, F., Laberge, G., Douziech, M., Ferland-McCollough, D. & Therrien, M. KSR is a scaffold required for activation of the ERK/MAPK module. Genes Dev 16, 427-38 (2002)). Protein expression was induced by adding CuSO₄ (0.7 mM) 36 h before harvesting the cells. For FRB/FKBP-mediated dimer formation, rapamycin (Sigma) was added ([…]) to the medium 2 h prior to harvesting the cells. Lysates, immunoprecipitations, western blot procedures and antibodies were essentially as previously described (Douziech, M., Sahmi, M., Laberge, G. & Therrien, M. A, KSR/CNK complex mediated by HYP, a novel SAM domain-containing protein, regulates RAS-dependent RAF activation in Drosophila, Genes Dev, 20, 807-19 (2006)).

## B-RAF_L487R (human B-RAF kinase domain, residues 448-723) (from UniProt P15056 448-723) (enzyme)
[1]
  average molecular weight (global self association fit): 48600 Da
  ratio of the observed average MW to the theoretical MW of the monomer: 1.5

## B-RAF_L487R/E558K (human B-RAF kinase domain, residues 448-723) (from UniProt P15056 448-723) (enzyme)
[2]
  average molecular weight (global self association fit): 55500 Da
  ratio of the observed average MW to the theoretical MW of the monomer: 1.8

## B-RAF_R481H (human B-RAF kinase domain, residues 448-723) (from UniProt P15056 448-723) (enzyme)
[3]
  average molecular weight (global self association fit): 34500 Da
  ratio of the observed average MW to the theoretical MW of the monomer: 1.1

B1: KSR-RAF chimera-A (KSR 1-665 fused to RAF 417-739, K455M) (other)
chain: MSSNNNAPASAPDTGSTNANDPISGSLSVDSNLVIIQDMIDLSANHLEGLRTQCAISSTLTQQEIRCLESKLVRYFSELLLAKMRLNERIPANGLVPHTTGNELRQWLRVVGLSQGTLTACLARLTTLEQSLRLSDEEIRQLLADSPSQREEEELRRLTRAMQNLRKCMESLESGTAASNNDPEQWHWDSWDRPTHIHRGSVGNIGLGNNSTASPRTHHRQHGVKGKNSALANSTNFKSGRQSPSATEELNSTQGSQLTLTLTPSPPNSPFTPSSGLSSSLNGTPQRSRGTPPPARKHQTLLSQSHVQVDGEQLARNRLPTDPSPDSHSSTSSDIFVDPNTNASSGGSSSNVLMVPCSPGVGHVGMGHAIKHRFTKALGFMATCTLCQKQVFHRWMKCTDCKYICHKSCAPHVPPSCGLPREYVDEFRHIKEQGGYASLPHVHGAAKGSPLVKKSTLGKPLHQQHGDSSSPSSSCTSSTPSSPALFQQRERELDQAGSSSSANLLPTPSLGKHQPSQFNFPNVTVTSSGGSGGVSLISNEPVPEQFPTAPATANGGLDSLVSSSNGHMSSLIGSQTSNASTAATLTGSLVNSTTTTSTCSFFPRKLSTAGVDKRTPFTSEYTDTHKSNDSDKTVSLSGSASTDSDRTPVRVDSTEDGDSGQWRQNSSEENWNILAEEILIGPRIGSGSFGTVYRAHWHGPVAVMTLNVKTPSPAQLQAFKNEVAMLKKTRHCNILLFMGCVSKPSLAIVTQWCEGSSLYKHVHVSETKFKLNTLIDIGRQVAQGMDYLHAKNIIHRDLKSNNIFLHEDLSVKIGDFGLATAKTRWSGEKQANQPTGSILWMAPEVIRMQELNPYSFQSDVYAFGIVMYELLAECLPYGHISNKDQILFMVGRGLLRPDMSQVRSDAPQALKRLAEDCIKYTPKDRPLFRPLLNMLENMLRTLPKIHRSASEPNLTQSQLQNDEFLYLPSPKTPVNFNNFQFFGSAGNI
[4]
  binding result: no binding
